Assay results reported in paper PMC2768541 (Journal of molecular biology, 2009).

How the values were obtained:
RyRP12 RyRP12 = RyRP12 RyRP12 (UniProt P21817); conditions: cited from earlier work
[1] = molecular target: TRTK12 (CapZ peptide) TRTK12 (Homo sapiens) (UniProt P52907); conditions: cited from earlier work
S100A1 = molecular target: T1, S100A1 (Rattus norvegicus, UniProt P35467); conditions: read-out: KD of S100A1 for RyRP12; ref [36]; [47]; cited from earlier work
T1 sequence (P35467 2-94 limits assumed): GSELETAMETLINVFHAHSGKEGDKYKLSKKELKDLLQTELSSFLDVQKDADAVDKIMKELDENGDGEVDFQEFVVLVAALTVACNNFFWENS

[2] = molecular target: T2, TRTK12 (CapZ alpha subunit peptide) (not fully specified)
T2 chain: Ac-TRTKIDWNKILS-NH2

[3] = molecular target: T3, TAMRA-TRTK12 (CapZ alpha subunit peptide) (not fully specified); experiment: fluorescence anisotropy
T3 chain: {TAMRA}-TRTKIDWNKILS-NH2

S100A1 (from UniProt P35467)
Kd (RyRP12 RyRP12): 8 µM

S100B (from UniProt P04631)
Kd [1]: 7 µM

KKAVWHKLLSKQ [RyRP12]
Kd (S100A1): 8 µM

B1: S100A1 (protein)
chain: MGSELETAMETLINVFHAHSGKEGDKYKLSKKELKDLLQTELSSFLDVQKDADAVDKIMKELDENGDGEVDFQEFVVLVAALTVACNNFFWENS
Kd [2]: 23 µM | Kd [3]: 1 µM
